Laboratory results taken from paper PMC6770890.

Biological target: T1, H-NS (Salmonella enterica serovar Typhimurium ATCC 14028s) (UniProt A0A0F6B244)
T1 sequence: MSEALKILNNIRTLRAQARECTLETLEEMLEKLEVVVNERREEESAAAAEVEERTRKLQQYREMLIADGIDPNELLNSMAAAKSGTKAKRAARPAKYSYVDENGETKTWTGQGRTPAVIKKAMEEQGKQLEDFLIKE
Test: EMSA
Settings: 20 mM Tris-HCl, 1 mM EDTA, 100 ug/mL BSA, 1 mM DTT, 10% glycerol, 80 mM NaCl, 25 C, 30 min; 50 ng DNA in 20 uL, protein 0-9.76 uM; pH 7.5 or 5.5 in Fig. 5B …

Sequence	binding
GCCGTGCTGTTCACTCATCCGCGCCACCAGCCGGTCAAGGTGCAGACGGGCAATCACGCCACGCGACGTTTCGTCCAGCGGCAGGTAAGGGATCACCGTCACGCGGCCCAGAAATGCCGCCGGGAAATGCTTGCGCAATTCCGGCATTAGCGCCTCTTTAAGCCCCGTAGCATCGGGCATTAAGGCCGGATCTTCACACATCTGGCTGATGAGGTCGGAACCCACGTTGGTGGTGAGTAATAGCGTGGTG (double strand) [STM0272 fragment]	no binding
CAAAGACGCCGAGAATGTGAAAAAATTCGTTCAGGCTTATCAGTCTGATGAAGTGTACGAAGCCGCAAATAAAGTTTTTAATGGCGGCGCGGTGAAAGGCTGGTAAGTTTTAGGCTGATTCCACAATCTGTAATATTATTCAGGACGGGCTATTGCCCGTCTTGTCATTTATGCAAGCTCCTGATTCAATATCTGGC (double strand) [yaeB promoter (PyaeB)]	binds
